# Publication PMC10574445, “Label-Free Homogeneous Electrochemical Aptasensor Based on Size Exclusion/Charge-Selective Permeability of Nanochannel Arrays and 2D Nanorecognitive Probe for Sensitive Detection of Alpha-Fetoprotein”
# Key:
# Settings in all cases: protein: commercial
# [1] = target: carcinoembryonic antigen (CEA) (UniProt P06731 35-685); test: electrochemical aptasensor (DPV), aptamer release from graphene oxide; Ru(bpy)3 2+/Apt@GO probe; no remarkable signal change; AFP incubated with Ru(bpy)3 2+/Apt@GO at 37 °C for 1 h, DPV on VMSF/ITO; buffer, salt and pH not given in the material
# [2] = target: PSA (printed as preprostate antigen) (UniProt P07288 25-261); test: as above
# [3] = target: neutrophil gelatinase-associated lipocalin (NGAL) (UniProt P80188 21-198); test: as above
# alpha-fetoprotein (AFP) = target: T1, alpha-fetoprotein (AFP) (UniProt P02771 19-609); test: electrochemical aptasensor (DPV), aptamer release from graphene oxide; Ru(bpy)3 2+/Apt@GO probe; linear 1 pg/mL-1000 ng/mL, LOD 0.8 pg/mL (not a Kd); AFP incubated with Ru(bpy)3 2+/Apt@GO at 37 °C for 1 h, DPV on VMSF/ITO; buffer, salt and pH not given in the material
# T1 sequence: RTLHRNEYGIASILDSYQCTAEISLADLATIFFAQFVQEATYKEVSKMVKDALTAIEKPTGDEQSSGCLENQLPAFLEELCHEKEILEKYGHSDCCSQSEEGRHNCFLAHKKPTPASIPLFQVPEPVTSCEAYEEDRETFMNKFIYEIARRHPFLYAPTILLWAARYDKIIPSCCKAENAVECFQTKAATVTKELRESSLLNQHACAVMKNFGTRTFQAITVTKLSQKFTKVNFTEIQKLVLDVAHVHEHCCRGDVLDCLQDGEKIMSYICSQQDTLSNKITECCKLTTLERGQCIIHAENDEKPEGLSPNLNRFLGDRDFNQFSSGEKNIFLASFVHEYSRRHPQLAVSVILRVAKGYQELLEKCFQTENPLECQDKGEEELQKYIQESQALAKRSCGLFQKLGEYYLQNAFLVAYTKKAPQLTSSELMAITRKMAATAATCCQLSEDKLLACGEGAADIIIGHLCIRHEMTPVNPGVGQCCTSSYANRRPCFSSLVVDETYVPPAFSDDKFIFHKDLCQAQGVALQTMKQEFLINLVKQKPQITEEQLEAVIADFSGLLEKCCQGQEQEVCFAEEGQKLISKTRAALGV
# PSA (printed as preprostate antigen), sequence (P07288 25-261): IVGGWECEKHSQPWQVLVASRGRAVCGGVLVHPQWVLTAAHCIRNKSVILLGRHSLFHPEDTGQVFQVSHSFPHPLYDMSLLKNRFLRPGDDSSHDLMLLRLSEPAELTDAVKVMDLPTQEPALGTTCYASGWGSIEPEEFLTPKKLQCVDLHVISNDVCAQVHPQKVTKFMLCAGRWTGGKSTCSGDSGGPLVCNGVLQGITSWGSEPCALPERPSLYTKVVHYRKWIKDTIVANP
# neutrophil gelatinase-associated lipocalin (NGAL), sequence (P80188 21-198): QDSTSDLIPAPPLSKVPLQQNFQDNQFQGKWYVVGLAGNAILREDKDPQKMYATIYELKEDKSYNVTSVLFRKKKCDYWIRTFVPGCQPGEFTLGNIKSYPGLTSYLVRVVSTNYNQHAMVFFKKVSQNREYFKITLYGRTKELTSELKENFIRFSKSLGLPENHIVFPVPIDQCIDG
# carcinoembryonic antigen (CEA), sequence (P06731 35-685): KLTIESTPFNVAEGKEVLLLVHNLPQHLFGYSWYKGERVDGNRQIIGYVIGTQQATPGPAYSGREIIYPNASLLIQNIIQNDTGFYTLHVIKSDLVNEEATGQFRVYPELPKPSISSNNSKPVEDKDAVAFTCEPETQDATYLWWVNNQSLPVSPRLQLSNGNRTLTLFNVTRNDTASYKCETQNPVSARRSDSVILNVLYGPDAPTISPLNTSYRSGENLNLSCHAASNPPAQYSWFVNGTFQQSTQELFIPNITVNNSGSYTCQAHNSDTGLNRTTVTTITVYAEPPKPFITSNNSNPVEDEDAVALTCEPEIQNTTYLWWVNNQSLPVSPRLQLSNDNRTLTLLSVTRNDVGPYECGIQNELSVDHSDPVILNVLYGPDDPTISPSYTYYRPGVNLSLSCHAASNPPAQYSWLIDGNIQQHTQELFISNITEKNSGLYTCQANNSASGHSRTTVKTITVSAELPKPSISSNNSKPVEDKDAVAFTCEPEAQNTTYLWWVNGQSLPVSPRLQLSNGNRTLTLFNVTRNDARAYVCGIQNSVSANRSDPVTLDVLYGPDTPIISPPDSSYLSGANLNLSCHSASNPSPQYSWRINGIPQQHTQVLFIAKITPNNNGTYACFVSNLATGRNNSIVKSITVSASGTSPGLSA
binder,measurement,setting,value
ATCAGGTGCAGTTCTCGACTCGGTCTTGATGTGGG (ssDNA) [AFP aptamer (Apt)],binding result,[1],no binding
same,binding result,[2],no binding
same,binding result,[3],no binding
same,binding result,alpha-fetoprotein (AFP),binds
